Test results taken from publication PMC10243135.
Read-outs that look alike come from different tables or passages of the source.

B1: sepX promoter (cryo-EM, RPo) (dsDNA)
DNA 1: GTGATATCAGCCAGATCGTGCGACACACCGGGCCAATTGGCCGATGCCGTCCCGCGAACCCCTCTACCGTGTGAGGCGTGAGCAGCAGCGGCCTCATCGC
DNA 2: GCGATGAGGCCGCTGCTGCTCACGCCTCACACGGTAGAGGGGTTCGCGGGACGGCATCGGCCAATTGGCCCGGTGTGTCGCACGATCTGGCTGATATCAC
B2: sepX-2 promoter (cryo-EM, RPo-2) (dsDNA)
DNA 1: GTGATATCAGCCAGATCGTGCGACACACCGGGCCAATTGGCTTGACACC
DNA 2: GGTGTCAAGCCAATTGGCCCGGTGTGTCGCACGATCTGGCTGATATCAC

What was measured:
[1] = target: T1, WhiA;WhiB;sigmaA (sigma HrdB);RbpA;RNA polymerase core (alpha2 beta beta' omega) (Streptomyces venezuelae;Streptomyces …, UniProt F2RGQ4;F2R611;F2R7X6;F2RBH1;F2RJV9;F2RIS5;F2RIS6;F2RCK7 …, ||||); assay: cryo-EM
[2] = target: T1, WhiA;WhiB;sigmaA (sigma HrdB);RbpA;RNA …; assay: cryo-EM; remark: listed apart in the source

| Binder | binding result [1] | binding result [2] |
| --- | --- | --- |
| B1 | binds |  |
| B2 |  | binds |
